Assay results: patent US20110177578, “APTAMER AGAINST IL-17 AND USE THEREOF” (The University of Tokyo, published 2011)

T1: IL-17 (IL-17A) (Homo sapiens, UniProt Q16552 Q16552:24-155)
T1 sequence: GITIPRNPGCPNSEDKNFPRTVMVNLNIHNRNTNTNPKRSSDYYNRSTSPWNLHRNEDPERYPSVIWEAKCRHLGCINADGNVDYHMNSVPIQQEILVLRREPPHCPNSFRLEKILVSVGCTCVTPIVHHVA

T2: IL-17F (Homo sapiens, UniProt Q96PD4 Q96PD4:31-163)
T2 sequence: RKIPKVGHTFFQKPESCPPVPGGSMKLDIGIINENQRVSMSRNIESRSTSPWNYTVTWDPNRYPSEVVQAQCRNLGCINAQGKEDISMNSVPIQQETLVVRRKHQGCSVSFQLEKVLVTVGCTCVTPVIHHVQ


How the values were obtained:
IL-17 (IL-17A) [1] = target: T1, IL-17 (IL-17A); assay: SPR; same as Example 1; conditions: tags: Peprotech; chain copies: 2
IL-17 (IL-17A) [2] = target: T1, IL-17 (IL-17A); assay: SPR; conditions: tags: Peprotech; chain copies: 2
IL-17 (IL-17A) [3] = target: T1, IL-17 (IL-17A); assay: SPR; 3' A16-tailed RNA on dT16 SA chip; solution A pH 7.6, Ca/Mg, 0.1 mg/mL tRNA; conditions: tags: Peprotech; chain copies: 2
Description: (§1) The binding activities for IL-17 of the nucleic acids shown by SEQ ID NOS:1-6 and 29-36 were evaluated by the surface plasmon resonance method. The measurements were taken using BIAcore 2000. The SA chip was used as the sensor chip, which had streptavidin immobilized thereon. Bound thereto was about 600 RU of a 16-nucleotide Poly dT with biotin bound to the 5′ end thereof. […] 20 μl, of human IL-17 for analyte, prepared at 0.5 was injected, with the addition of 0.1 mg/mL tRNA to lessen nonspecific adsorption. Solution A was used as a running buffer. […] Here, 30N refers to the nucleic acid pool used for the first round of SELEX, comprising a 30-nucleotide random sequence. As an example, a sensorgram showing a status of the binding of the aptamer shown by SEQ ID NO:1 (Apt1) and human IL-17 is shown in FIG. 7. From the above, it was shown that the nucleic acids shown by SEQ ID NOS:1-6 and 29-36 are aptamers that bind to IL-17.

IL-17F = target: T2, IL-17F; assay: SPR; tRNA added; conditions: tags: R&D Systems 1335-INS/CF; chain copies: 2
Description: as §1
Whether the IL-17 aptamers shown by SEQ ID NOS:1-6 and 29-36 bind to IL-17F, which belongs to the same family, was determined by the surface plasmon resonance method. The amino acid sequence homology between IL-17 and IL-17F is 50%. The experiment was performed using IL-17F produced by R&D Company (1335-INS/CF), while in a state wherein tRNA was added to lessen nonspecific adsorption as described above.

IL-17 (IL-17A) [4] = target: T1, IL-17 (IL-17A); assay: SPR; solution A, tRNA; conditions: tags: Peprotech; chain copies: 2
Description: as §1

Binder	binding result (IL-17F)	binding result (IL-17 (IL-17A) [4])	other results
SEQ 43 (ssRNA, 2'-F pyrimidines) RNA: AGAGGUCAGAUGGUCUAGCCGGAGGAGUCAGUAAUCGGUAGACCUAUGCGUG			binding result (IL-17 (IL-17A) [1]): binds
GGAUAGCGAAGUCAUUGAGCACC (ssRNA, 2'-F pyrimidines) [SEQ 46]			binding result (IL-17 (IL-17A) [2]): binds
GCAGCAGAGGAUAGCGAAGUCAUUGAGCGCCUAUGCGUGC (ssRNA, 2'-F pyrimidines) [SEQ 38]			binding result (IL-17 (IL-17A) [1]): binds
SEQ 1 (Apt1) (ssRNA, 2'-F pyrimidines) RNA: GGGAGCAGGAGAGAGGUCAGAUGGGCAGCAGAGGAUAGCGAAGUCAUUGAGCGCCUAUGCGUGCUAGUGUGA	no binding		binding result (IL-17 (IL-17A) [3]): binds
SEQ 5 (ssRNA, 2'-F pyrimidines) RNA: GGGAGCAGGAGAGAGGUCAGAUGAGCGCCAUAGGGUAGAGAAGCCAUUGAUCACCUAUGCGUGCUAGUGUGA	no binding	binds	
SEQ 2 (ssRNA, 2'-F pyrimidines) RNA: GGGAGCAGGAGAGAGGUCAGAUGGUGCACAUGGGAUAGCGAAGUCAUUGAGCGCCUAUGCGUGCUAGUGUGA	no binding	binds	
SEQ 32 (ssRNA, 2'-F pyrimidines) RNA: GGGAGCAGGAGAGAGGUCAGAUGGGCAGCGGAGGAUGGCGAAGUCAUUGGGCGCCUAUGCGUGCUGGUGGAG	no binding	binds	
GGAUAGCGAAGUCAUCGAGCGCC (ssRNA, 2'-F pyrimidines) [SEQ 45]			binding result (IL-17 (IL-17A) [2]): binds
GGAUAGCGAAGUCAUUGAGCGCC (ssRNA, 2'-F pyrimidines; 2'-OMe at g19) [SEQ 40-4]			binding result (IL-17 (IL-17A) [2]): binds
GGGGAUAGCGAAGUCAUUGAGCGCCCC (ssRNA, 2'-F pyrimidines) [SEQ 41]			binding result (IL-17 (IL-17A) [1]): binds
GGAUAGCGAAGUCAUUGAGCGCC (ssRNA, 2'-F pyrimidines) [SEQ 40]			binding result (IL-17 (IL-17A) [1]): binds
SEQ 36 (ssRNA, 2'-F pyrimidines) RNA: GGGAGCAGGAGAGAGGUCAGAUGUAUAGCGAAGUCAUUGAGCGACAAAGCCGGCCUAUGCGUGCUAGUGUGA	no binding	binds	
GUGCACAUGGGAUAGCGAAGUCAUUGAGCGCCUAUGCGUGC (ssRNA, 2'-F pyrimidines) [SEQ 42]			binding result (IL-17 (IL-17A) [1]): binds
SEQ 4 (ssRNA, 2'-F pyrimidines) RNA: GGGAGCAGGAGAGAGGUCAGAUGCUAUAGCGAAGUCAUUGAGCGAGACAUAGGCCUAUGCGUGCUAGUGUGA	no binding	binds	
SEQ 29 (ssRNA, 2'-F pyrimidines) RNA: GGGAGCAGGAGAGAGGUCAGAUGCGAUAGCGAAGUCAUUGAGCGCGUGUCCAACCUAUGCGUGCUAGUGUGA	no binding	binds	
SEQ 31 (ssRNA, 2'-F pyrimidines) RNA: GGGAGCAGGAGAGAGGUCAGAUGGAAGUGGAGUCAGAUAUAGCAAUAUUAUGACCUAUGCGUGCUAGUGUGA	no binding	binds	
SEQ 3 (ssRNA, 2'-F pyrimidines) RNA: GGGAGCAGGAGAGAGGUCAGAUGUGUAAGGUCGGAAGUCAUGAACGGCCCGGACCUAUGCGUGCUAGUGUGA	no binding	binds	
GGAUAGAGAAGUCAUUGAGCGCC (ssRNA, 2'-F pyrimidines; 2'-OMe at a7) [SEQ 47]			binding result (IL-17 (IL-17A) [2]): binds
SEQ 37 (ssRNA, 2'-F pyrimidines) RNA: CAGAUGGGCAGCAGAGGAUAGCGAAGUCAUUGAGCGCCUAUGCGUGCUAGUGUG			binding result (IL-17 (IL-17A) [1]): binds
GGAUAGCGAAGUCAUUGAGCGCC (ssRNA, 2'-F pyrimidines except c7; 2'-OMe at c7) [SEQ 40-3]			binding result (IL-17 (IL-17A) [2]): binds
SEQ 30 (ssRNA, 2'-F pyrimidines) RNA: GGGAGCAGGAGAGAGGUCAGAUGGUCUAGCCGGAGGAGUCAGUAAUCGGUAGACCUAUGCGUGCUAGUGUGA	no binding	binds	
SEQ 33 (ssRNA, 2'-F pyrimidines) RNA: GGGAGCAGGAGAGAGGUCAGAUGGAGGAGCCAGUGAUCGUUGACCUCAAUGCACCUAUGCGUGCUAGUGUGA	no binding	binds	
SEQ 35 (ssRNA, 2'-F pyrimidines) RNA: GGGAGCAGGAGAGAGGUCAGAUGGAGGAGGCAGUAAUCGUUGACUGGUAAACCCCUAUGCGUGCUAGUGUGA	no binding	binds	
SEQ 34 (ssRNA, 2'-F pyrimidines) RNA: GGGAGCAGGAGAGAGGUCAGAUGGAGGAGACAGUGAUCGUUGACCCACCGGGUCCUAUGCGUGCUAGUGUGA	no binding	binds	
GCAGAGGAUAGCGAAGUCAUUGAGCGCCUAUGC (ssRNA, 2'-F pyrimidines) [SEQ 39]			binding result (IL-17 (IL-17A) [1]): binds
SEQ 6 (ssRNA, 2'-F pyrimidines) RNA: GGGAGCAGGAGAGAGGUCAGAUGGUGAUGCAUAGGAGUGGAGUCAGAUAUAGCCCUAUGCGUGCUAGUGUGA	no binding	binds	
GGAUAGCGAAGACAUUGAGCGCC (ssRNA, 2'-F pyrimidines; 2'-OMe at a12) [SEQ 48]			binding result (IL-17 (IL-17A) [2]): binds
GGUCUAGCCGGAGGAGUCAGUAAUCGGUAGACC (ssRNA, 2'-F pyrimidines) [SEQ 44]			binding result (IL-17 (IL-17A) [1]): binds
GGAUAGCGAAGUCAUUGAGCGCC (ssRNA, 2'-F pyrimidines; 2'-OMe at a3) [SEQ 40-2]			binding result (IL-17 (IL-17A) [2]): binds
